Results taken from the nanobody polyreactivity screen of Harvey et al. (2022).

Assay: yeast display, Sf9 membrane polyspecificity reagent, FACS + sequencing; frameworks hold sequencing errors
Summary of the method: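 Using colony PCR, genes from sorted yeast display clones were amplified, then sequenced on MiSeq at 2 × 250 and filtered by CDR length. The clones had been stained with 10% biotinylated, detergent-solubilized Sf9 membrane reagent for 1 hour at 4 °C and sorted by FACS into low and high (top ~1%) gates on anti-HA and streptavidin fluorescence. Polyreactivity labels come from the gate of origin.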

Row | Sequence | polyreactivity (PSR sort gate)
1 | QVQLVESGGGLVQAGGSLRLSCAASGSIFSSNAMGWYRQAPGKERELVAAITSSGTRTYYADSVKGRFTISRDNAKNTVYLQMNSLKPEDTAVYYCATRLRRSDHRYPYDYWGQGTQVTVSS | low polyreactivity
2 | QVQLVESGGGLVQAGGSLRLSCAASGSIFSSYAMGWYRQAPGKERELVAAISQSGGDTYYADSVKGRFTISRDIAKNTVYLQMNSLKPEDTAVYYCAACVWYYPMDYWGQGTQGTVSS | low polyreactivity
3 | QVQLVESGGGLVQAGGSLRLSCAASGSIFSSYAMGWYRQAPGKERELVAAISSGGGITYYADSVKGRFTISRDNAKNTVYLQMNSLKPEDTAVYYCNARVARSNNGWYYYWGQGTQVTVSS | high polyreactivity
4 | QVQLVESGGGLVQAGGSLRLSCAASGSIFSSYAMGWYRQAPGKERELVAAISSSGDSTYADSVKGRFTISRDNAKNTVYLQMNSLKPEDTAVYYCAVGGAGSDDYWGQGTQVTVSS | low polyreactivity
5 | QVQLVESGGGLVQAGGSLRLSCAASGSIFSSYAMGWYRQAPGKERELVAAISWRGGSTYYADSVKGRFTISRDNAKNTVYLQMNSLKPEDTAVYYCAAQYQYYGGRRYDYWGQGTQVTVSS | high polyreactivity
6 | QVQLVESGGGLVQAGGSLRLSCAASGSIFSSYSMGWYRQAPGKERELVAAISSGDSTYYADSVKGRFTISRDNAKNTVYLQMNSLKPEDTAVYYCAAPWYAWGQGTQVTVSS | low polyreactivity
7 | QVQLVESGGGLVQAGGSLRLSCAASGSIFSTYAMGWSRQAPGKERELVAAITTSGGRTYYADSVKGRFTISRDNAKNTVYLQMNSLKPEDTAVYYCNAVRGGRYGLDYWGQGTQVTVSS | high polyreactivity
8 | QVQLVESGGGLVQAGGSLRLSCAASGSIFSTYAMGWYRQAPGKERELVAAISRRAGTTYYADSVKGRFTISRDNAKNTVYLQMNSLKPEDTAVYYCAALTESSSYGYWGQGTQVTVSS | low polyreactivity
9 | QVQLVESGGGLVQAGGSLRLSCAASGSIFSTYAMGWYRQAPGKERELVAALDDDGGSTYYADSVKGRFTISRDNAKNTVYLQMNSLKPEDTAVYYCNADYDGNGWAGDYSDSYDYWGQGTQVTVSS | low polyreactivity
10 | QVQLVESGGGLVQAGGSLRLSCAASGSIFSTYVMVWYRQAPGKDRELVAAITVSVGSTYYADSVKGRFTISRDNAKNTVYLQMNSLKPEDTAVYYCAAYGGTGYPFDAYYHDYDYWGQGTQVTVSS | low polyreactivity
11 | QVQLVESGGGLVQAGGSLRLSCAASGSIFSVNAMGWYRQAPGKERELVAAISWRGGSTYYADSVKGRFTISRDNAKNTVYLQMNSLKPEDTAVYYCNAVISVKRSTRYGYWGQGTQVTVSS | low polyreactivity
12 | QVQLVESGGGLVQAGGSLRLSCAASGSIFSVNAMGWYRQAPGKVRELVAAISWRGGSTYYADSVKGRFTISRYNAKTTVYLQMNSLKPEDTAGYYCNAVISVKRSTRYGYWGQGTQVTVSS | low polyreactivity
13 | QVQLVESGGGLVQAGGSLRLSCAASGSIFSVNTMGGYRQAPGKERELVADISSGDSTYYADSVKGRFTISRDNAKNTVYLQMNSLKPEDTAVYFCNADVYSWVSGKEGDYWGQGTQVTVSS | low polyreactivity
14 | QVQLVESGGGLVQAGGSLRLSCAASGSIFSVYAMGWYRQAPGKERELVAAITSGTSTYADSVKGRFTISRDNAKNTVYLQMNSLKPEDTAVYYCAAEFLWIVDYWGQGTQVTVSS | low polyreactivity
15 | QVQLVESGGGLVQAGGSLRLSCAASGSIFSVYSMGWYRQAPGKERELVADITRSGARTYYADSVKGRFTISRDNAKNTVYFPMNSLKPEDTAVYYCAADDPCYDQVEYWGQGTQVTVSS | high polyreactivity
16 | QVQLVESGGGLVQAGGSLRLSCAASGSIFSVYVMGWYRQAPGKERELVAAISWSDSDTYYADSVKGRFTISRDNAKNTVYLQMNSLKPEDTAVYYCNVVNPVLYSSYEFDYWGQGTQVTVSS | high polyreactivity
17 | QVQLVESGGGLVQAGGSLRLSCAASGSIFSWSAMGWYRQAPGKVRELVAGITWTGGSTYYADSVKGRFTISRDNAKNTVYLQRNSLKPEDTAVYYCNARRATYRKYTPVPFDRYDYWGQGTQVTVSS | high polyreactivity
18 | QVQLVESGGGLVQAGGSLRLSCAASGSIFSWYAMGWYRQAHGKEREFVAGISSSGSTKYADSVKGRFTISRDNAKNTVYLQMNSLKPEDTAVYYCAVANKSQRYFYYYFHYYYWGQGTQVTVSS | low polyreactivity
19 | QVQLVESGGGLVQAGGSLRLSCAASGSIFSWYAMGWYRQAPGKERELVAAIRRGGSTYYADSVKGRFTISRDNAKNTVYLQMNSLKPEDTAVYYCAARVYTAASRGRGDYWGQGTQVTVSS | low polyreactivity
20 | QVQLVESGGGLVQAGGSLRLSCAASGSIFSWYAMGWYRQAPGKERELVAAIRWSGGRTYYADSVKGRFTISRDNAKNTVYLQMNSLKPEDTAVYYCAADFYPDEYYYWGQGTQVTVSS | high polyreactivity
21 | QVQLVESGGGLVQAGGSLRLSCAASGSIFSYNALGWYRQAPGKEREFVAAISARGGSTYYADSVKGRFTISRDNAKNTVYLLMNSLKPEDTAVYYCAASWGLGTYSDSTYWGGYYYWGQGTQVTVSS | low polyreactivity
22 | QVQLVESGGGLVQAGGSLRLSCAASGSIFSYNAMGWYREAPGKERELVAAISSRGRTYYADSVKGRFTISRDNAKNTVNLQMNSLKPEDTAVYYCAARGYWDLRTFYYWGQGTQVTVSS | high polyreactivity

Row | Sequence | polyreactivity (PSR sort gate)
23 | QVQLVESGGGLVQAGGSLRLSCAASGSIFSYNAMGWYRQAPGKEMELVAAISSGGSTYYADSVKGSFTISRDNAKNTVYLQMNSLKPEDTAVYYCNVYYLIWPYGHQVKRRDYWGQGTQVTVSS | low polyreactivity
24 | QVQLVESGGGLVQAGGSLRLSCAASGSIFSYNAMGWYRQAPGKERELVAAITWSGGSTYYADSVKGRFTISRDNAKNTVYLQMNSLKPEDTAVYDCAAKGGYSTVRPTYTKFNYWGLGTQVTVSS | high polyreactivity
25 | QVQLVESGGGLVQAGGSLRLSCAASGSIFSYYAMGWSRQAPGKERELVAAISSGGSRTYYADSVKGRFTISRDNAKNTVYLQMNSLKPEDTAVYYCNAPAPARYYRGHDYWGQGTQVTVSS | high polyreactivity
26 | QVQLVESGGGLVQAGGSLRLSCAASGSIFSYYAMGWYRQAPGKERELFAVINSGGRTNYADSVKGRFTISRDNAKNTVYLQMNSLKPEDTAVYYCAAQGYFVDRAGRYYRGDYWGQGTQVTVSS | high polyreactivity
27 | QVQLVESGGGLVQAGGSLRLSCAASGSIFSYYAMGWYRQAPGKERELVAAISQSGGTTYYADSVKGRFTISRDNAKNTDYLQMKSLKPEDTAVYYCAARAPSSFDTQYYYWGQGTQVTVSS | low polyreactivity
28 | QVQLVESGGGLVQAGGSLRLSCAASGSIFSYYAMGWYRQAPGKERELVAAISQSGGTTYYADSVKGRFTISRDNAKNTVYLQMNSLKPEDTAVYYCAARAPSSFDTQYYYWGQGTQVTVSS | low polyreactivity
29 | QVQLVESGGGLVQAGGSLRLSCAASGSIFSYYAMGWYRQAPGKERELVAAISRGGYTYYADSVKGRFTISRDNAKNTVYLQMNSLKPEDTAVYYCAAAPYYVTLVTRRDYWGQGTQVTVSS | high polyreactivity
30 | QVQLVESGGGLVQAGGSLRLSCAASGSIFSYYAMGWYRQAPGKERELVAAISVSGGRTYYADSVKGRFTISRDNAKNTVYLQMNSLKPEDTAVYYCATRIRSYYYWGQGTQVTVSS | high polyreactivity
31 | QVQLVESGGGLVQAGGSLRLSCAASGSIFSYYAMGWYRQAPGKERELVAAISWSGGRTYYADSVKGRFTISRDNAKNTVYLQMNSLKPEDTAVYYCNVDVYVVPHYDYWGQGTQVTVSS | high polyreactivity
32 | QVQLVESGGGLVQAGGSLRLSCAASGSIFSYYAMGWYRQAPGKERELVAANDWNVDSTYYADSVKGRFTISRDNAKNTVYLQLNSLNPEDTAVYYCNAEVYYFYTRYTWYLYDYWRQGTQVTVSS | low polyreactivity
33 | QVQLVESGGGLVQAGGSLRLSCAASGSIFSYYAMGWYRQAPGKERELVAGITWSGGRTYYADSVKGRFTISRDNAKNTVYLQMNSLKPEDTAVYYCAAVQLFSRRSRYDYWGQGTQVTVSS | high polyreactivity
34 | QVQLVESGGGLVQAGGSLRLSCAASGSIFSYYAMGWYRQATGKERELVAAITRGGTTYYAVCVKGRFTISRDNAKNTVYLQMNSLKPDDTAVYYCAVYYYSGTAGYRYGYWGQGTQVTVSS | high polyreactivity
35 | QVQLVESGGGLVQAGGSLRLSCAASGSIFSYYPMGWYRPAPGKERELVAAISWSGGSTYYADSVKGRFTISRDNAKNTVYLQMNSLKPEDTAVYYCAAQSWSGDSSFWRYDYWGQGTQVTVSS | low polyreactivity
36 | QVQLVESGGGLVQAGGSLRLSCAASGSIFTANAMGWYRQAPGKERELVAAISRSGGRTYYADSLKGRFTISRDNEKNTVYLQWKSLKPEDTAVYYCNVGRFNTSGYDYWGLGTQVTVSS | high polyreactivity
37 | QVQLVESGGGLVQAGGSLRLSCAASGSIFTANAMGWYRQAPGKERELVAAISRSGGRTYYADSVKGRFTISRDNAKNTVYLQMNSLKPEDTAVYYCNVGRFNTSGYDYWGQGTQVTVSS | high polyreactivity
38 | QVQLVESGGGLVQAGGSLRLSCAASGSIFTAYAMGWYRQAPGKERELVAAISYGGGSTYYADSVKGRFTISRDNAKNTVYLQMNSLKPEDTAVYYCAAASSGEYGYWGQGTLVTVSS | low polyreactivity
39 | QVQLVESGGGLVQAGGSLRLSCAASGSIFTAYTMGWYRQAPGKERELVAVISDSSGRTYYADSVKGRFTISRDNAKNTVYLQMNSLKPEVTAVYYCAAEYSDIYEYWGQGTQVTVSS | low polyreactivity
40 | QVQLVESGGGLVQAGGSLRLSCAASGSIFTDYTMGWYRQAPGKERELVAAISWIGDSTDYADSVKGRFTISRDNAKNTVYLQMNSLKPEDTAVYYCAKSRAGRYNDYDYWGQGTQVTVSS | low polyreactivity
41 | QVQLVESGGGLVQAGGSLRLSCAASGSIFTEYAMGWYIQAPGKERELVAAISWSGATTYYADSVKGRFTISRDNAKNTVYLQMNSLKPEDTAVYYCAARWANRSYEYWGQGTQVTVSS | low polyreactivity
42 | QVQLVESGGGLVQAGGSLRLSCAASGSIFTEYAMGWYRKAPGKERELVAVITLRGGSTYYADSVKGRFTISRDNAMNTVYLQMNSLKPEDTAVYYCAAVTLVSFWFDYWGQGTQVTVSS | low polyreactivity
43 | QVQLVESGGGLVQAGGSLRLSCAASGSIFTFNAMGWYRQAPGKERELVAAINWSGTRTYYADSVKGRFTISRDNAKNTVYLQMNSLKPEDTAVYYCNTRPSKRYGYDYWGQGTQVTVSS | high polyreactivity
